Results: patent US20220153864A1 (Pieris, published 2022)
Blank lines part the entries; values can stand above or below the binder they belong to.

Assays:
[1] = target: T1, recombinant cynomolgus GPC3 (cyGPC3) (R&D Systems) (cynomolgus, UniProt A0A2K5VK50 24-558); test: ELISA, cyGPC3 coated
Description: (§1) Recombinant huGPC3 (R&D Systems) at the concentration of 1 μg/mL in PBS was coated overnight on microtiter plates at 4° C. After five washes with 100 μL PBS-0.05% T (PBS supplemented with 0.05% (v/v) Tween 20), the plates were blocked with 2% BSA (w/v) in PBS-0.1% T (PBS-0.1% T-2% BSA) for 1 h at room temperature. After washing with 100 μL PBS-0.05% T (PBS supplemented with 0.05% (v/v) Tween 20) five times, exemplary fusion proteins (SEQ ID NOs: 87 and […] and CD137Ac1-Fusion 1 to 7) or the GPC3 antibody as include in the fusion proteins (SEQ ID NOs: 81 and 82) at different concentrations were added to the wells and incubated for 1 h at room temperature, followed by another wash step. Bound molecules under study were detected by incubation with 1:5000 diluted anti-human IgG Fc-HRP (Jackson Laboratory) in PBS-0.1% T-2% BSA. After an additional wash step, fluorogenic HRP substrate (QuantaBlu, Thermo) was added to each well and the fluorescence intensity was detected using a fluorescence microplate reader.
The same ELISA setup was also employed to determine the binding potency of fusion proteins to cynomolgus GPC3 and huCD137, where recombinant cyGPC3 (R&D Systems) or huCD137-His (recombinant human CD137 with C-terminal polyhistidine tag, R&D Systems) was instead coated on a microtiter plate. The testing agents were similarly titrated and bound agents were detected via anti-NGAL-HRP. […]

[2] = target: T2, human GPC3 expressed on cells (SK-Hep1::huGPC3; HepG2, Hep3B and MKN-45 tumor cells) (human, UniProt P51654 25-554); test: flow cytometry on MKN-45 tumor cells (GPC3 moderate)
T2 construct: whole, on cells; also called GPC3-positive tumor cells; human GPC3-expressing cells
Description: (§2) 5×10⁴ cells per well were incubated for 1 h in ice-cold PBS containing 5% fetal calf serum (PBS-FCS). A dilution series of the testing molecule were added to the cells and incubated for 1 h on ice. Cells were washed twice with PBS and then incubated with a goat anti-hlgG Alexa647-labeled antibody or goat anti-hlgG Alexa488-labeled antibody for 30 min on ice. Cells were subsequently washed and analyzed using iQue Flow cytometer (Intellicyte Screener). Mean geometric fluorescent signals were plotted and fitted with Graphpad software. The geometric means of the fluorescence intensity were used to calculate EC₅₀ values using a four-parameter logistic regression with bottom fixed to background.
(§3) For flow cytometric analysis, tumor cell lines with different GPC3 expression levels (high to moderate expression: HepG2>Hep3B>MKN-45) and GPC3 negative cell line NCI-N87 were incubated with an exemplary fusion protein SEQ ID NOs: 87 and 82, the GPC3 antibody or the CD137 specific lipocalin mutein (Fc fusion) as included in the fusion protein (SEQ ID NOs: 81 and 82 and SEQ ID NO: 98, respectively), a reference CD137 antibody SEQ ID NOs: 26 and 27, or an isotype control (SEQ ID NO: 24 and 25), and detected using a fluorescently labeled anti-human IgG antibody as described in Example 6.

[3] = target: T3, recombinant human GPC3 (huGPC3) (R&D Systems) (human, UniProt P51654 25-559); test: SPR (Biacore T200), binder captured by anti-human IgG Fc, huGPC3 as analyte, 1:1 model
T3 construct: also called biotinylated huGPC3
Description: (§4) The anti-human IgG Fc antibody (GE Healthcare) was immobilized on a CM5 sensor chip using standard amine chemistry: the carboxyl groups on the chip were activated using 1-ethyl-3-(3-dimethylaminopropyl)-carbodiimide (EDC) and N-hydroxysuccinimide (NHS). Subsequently, anti-human IgG Fc antibody solution (GE Healthcare) at a concentration of 25 μg/mL in 10 mM sodium acetate (pH 5.0) was applied at a flow rate of 5 μL/min until an immobilization level of 6000-10000 resonance units (RU) was achieved. Residual non-reacted NHS-esters were blocked by passing a solution of 1M ethanolamine across the surface. The reference channel was treated in an analogous manner. Subsequently, testing fusion proteins (SEQ ID NOs: 87 and 82 and CD137Ac1-Fusion 1) or the GPC3 antibody as included in the fusion protein (SEQ ID NOs: 81 and 82) at 0.2 μg/ml in HBS-EP+ buffer was captured by the anti-human IgG-Fc antibody at the chip surface for 180 s at a flow rate of 10 μL/min. After each capture step, the needle was washed.
(§5) The binding assay was carried out with a contact time of 180 s, a dissociation time of 900 s, and a flow rate of 30 μL/min. After each injection, the needle was cleaned with 40 mM NaOH+20% isopropanol. All measurements were performed at 25° C. […] Prior to the protein measurements, three startup cycles were performed for conditioning purposes. Data were evaluated with Biacore T200 Evaluation software (v2.0). Double referencing was used and the 1:1 binding model was used to fit the raw data.

[4] = target: T3, recombinant human GPC3 (huGPC3) (R&D …); test: ELISA, huGPC3 coated, detection anti-human IgG Fc-HRP
Description: as §1
Exemplary results are depicted in FIG. 2A-2D, together with the fit curves resulting from a 1:1 binding sigmoidal fit, where the EC₅₀ value and the maximum signal were free parameters, and the slope was fixed to unity.

[5] = target: T2, human GPC3 expressed on cells …; test: flow cytometry on SK-Hep1::huGPC3 cells, anti-human IgG detection
Description: (§6) For flow cytometric analysis, respective cell lines were incubated with an exemplary fusion protein (SEQ ID NOs: 87 and 82), the GPC3 antibody or the CD137 specific lipocalin mutein (Fc fusion) as included in the fusion protein (SEQ ID NOs: 81 and 82 and SEQ ID NO: 98, respectively), a reference CD137 antibody SEQ ID NOs: 26 and 27, or an isotype control (SEQ ID NOs: 24 and 25) and detected using a fluorescently labeled anti-human IgG antibody in FACS analysis as described in the following:
as §2

[6] = target: T2, human GPC3 expressed on cells …; test: flow cytometry, SK-Hep1 cells transfected with human GPC3, detection labelled anti-human IgG, GeoMean RL1-H [upper graph]
Description: as §6, §2

[7] = target: T2, human GPC3 expressed on cells …; test: flow cytometry on Hep3B tumor cells (GPC3 positive)
Description: as §2, §3

[8] = target: T2, human GPC3 expressed on cells …; test: flow cytometry on HepG2 tumor cells (GPC3 high)
Description: as §2, §3

[9] = target: T4, human CD137 expressed on cells (Flp-In-CHO::huCD137; NFkB-luc2/CD137 Jurkat cells) (human, UniProt Q07011 24-255); test: flow cytometry, CHO cells transfected with human CD137, detection labelled anti-human IgG, GeoMean RL1-H [upper graph]
T4 construct: whole, on cells; also called human CD137-expressing cells
Description: as §6, §2

[10] = target: T1, recombinant cynomolgus GPC3 (cyGPC3) …; test: SPR (Biacore T200), binder captured by anti-human IgG Fc, cyGPC3 as analyte, 1:1 model
Description: as §4, §5

[11] = target: T5, huCD137-His (recombinant human CD137 with C-terminal polyhistidine tag, R&D Systems) (human, UniProt Q07011 24-186); test: ELISA, huCD137-His coated, binder titrated to 100 nM, detection anti-NGAL-HRP per paragraph 342 (the antibody itself carries no lipocalin mutein) [upper graph]
T5 construct: also called biotinylated huCD137-His; not shown: C-terminal polyhistidine tag

[12] = target: T4, human CD137 expressed on cells …; test: cell-based or functional assay
[13] = target: T2, human GPC3 expressed on cells …; test: flow cytometry, SK-Hep1 cells transfected with human GPC3, detection labelled anti-human IgG, GeoMean BL1-H [lower graph]
Description: as §6, §2

[14] = target: T4, human CD137 expressed on cells …; test: flow cytometry on Flp-In-CHO::huCD137 cells, anti-human IgG detection
Description: as §6, §2

T3 sequence (P51654 25-559 limits assumed): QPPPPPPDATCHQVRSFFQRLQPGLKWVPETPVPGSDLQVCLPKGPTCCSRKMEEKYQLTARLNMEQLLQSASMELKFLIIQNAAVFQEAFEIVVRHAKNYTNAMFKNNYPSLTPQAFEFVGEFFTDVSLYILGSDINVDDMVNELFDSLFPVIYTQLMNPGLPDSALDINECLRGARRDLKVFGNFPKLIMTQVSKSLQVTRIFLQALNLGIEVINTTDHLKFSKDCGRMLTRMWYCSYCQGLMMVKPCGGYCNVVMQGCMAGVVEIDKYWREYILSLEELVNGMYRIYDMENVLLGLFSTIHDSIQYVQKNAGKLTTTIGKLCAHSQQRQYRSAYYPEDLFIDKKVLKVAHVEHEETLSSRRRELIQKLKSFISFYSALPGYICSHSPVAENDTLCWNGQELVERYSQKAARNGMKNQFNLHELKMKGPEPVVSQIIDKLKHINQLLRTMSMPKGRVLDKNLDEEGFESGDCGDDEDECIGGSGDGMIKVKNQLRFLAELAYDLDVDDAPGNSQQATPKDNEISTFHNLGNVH
T4 sequence (Q07011 24-255): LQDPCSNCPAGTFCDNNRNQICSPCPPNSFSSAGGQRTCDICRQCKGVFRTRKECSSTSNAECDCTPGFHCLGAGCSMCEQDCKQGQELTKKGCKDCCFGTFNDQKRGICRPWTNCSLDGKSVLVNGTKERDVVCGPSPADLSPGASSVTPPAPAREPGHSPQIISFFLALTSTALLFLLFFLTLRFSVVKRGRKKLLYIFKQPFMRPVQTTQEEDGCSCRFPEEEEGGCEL
T2 sequence (P51654 25-554 limits assumed): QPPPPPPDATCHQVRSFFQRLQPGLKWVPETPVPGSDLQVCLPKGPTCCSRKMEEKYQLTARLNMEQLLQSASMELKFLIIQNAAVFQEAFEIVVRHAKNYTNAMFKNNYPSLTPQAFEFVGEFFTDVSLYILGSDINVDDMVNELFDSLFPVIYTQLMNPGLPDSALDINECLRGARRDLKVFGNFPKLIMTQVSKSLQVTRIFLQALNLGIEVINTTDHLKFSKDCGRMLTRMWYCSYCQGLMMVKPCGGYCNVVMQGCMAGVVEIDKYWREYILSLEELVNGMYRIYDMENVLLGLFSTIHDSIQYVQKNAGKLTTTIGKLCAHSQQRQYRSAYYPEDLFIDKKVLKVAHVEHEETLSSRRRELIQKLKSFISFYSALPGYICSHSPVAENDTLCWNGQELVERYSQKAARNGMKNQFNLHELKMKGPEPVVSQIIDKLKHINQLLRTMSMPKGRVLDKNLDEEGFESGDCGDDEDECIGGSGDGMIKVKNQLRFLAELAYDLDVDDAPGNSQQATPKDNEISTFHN

EC50 [1]: 0.23 nM
EC50 [2]: 1.46 nM
Kd [3]: 0.686 nM
koff [3]: 0.000248 s⁻¹
kon [3]: 361000 M⁻¹ s⁻¹
EC50 [4]: 0.13 nM
EC50 [5]: 19.9 nM
EC50 (read off the curve) [6]: ~5 nM
EC50 [7]: 6.35 nM
EC50 [8]: 16.7 nM
binding result [9]: no binding (tested: 100 nM)
Kd [10]: 0.737 nM
koff [10]: 0.000151 s⁻¹
kon [10]: 205000 M⁻¹ s⁻¹
binding result [11]: no binding (tested: 100 nM)
B1: GPC3 antibody as included in the fusion protein (SEQ ID NOs: 81 and 82) (antibody, human IgG4 S228P, kappa, F234A L235A, V domains shown)
VH: QVQLVQSGAEVKKPGASVKVSCKASGYTFTDYEMHWVRQAPGQGLEWMGALDPKTGDTAYSQKFKGRVTLTADKSTSTAYMELSSLTSEDTAVYYCTRFYSYTYWGQGTLVTLVS
VL: DVVMTQSPLSLPVTPGEPASISCRSSQSLVHSNRNTYLHWYLQKPGQSPQLLIYKVSNRFSGVPDRFSGSGSGTDFTLKISRVEAEDVGVYYCSQNTHVPPTFGQGTKLEIKR
notes: also called GPC3 specific antibody

EC50, CD137 Bioassay (NFkB-luc2/CD137 Jurkat cells co-cultured with Hep3B) [12]: 1.39 nM
EC50, CD137 Bioassay (NFkB-luc2/CD137 Jurkat cells co-cultured with HepG2) [12]: 0.94 nM
EC50, CD137 Bioassay (NFkB-luc2/CD137 Jurkat cells co-cultured with MKN-45) [12]: 1.47 nM
EC50, CD137 Bioassay (NFkB-luc2/CD137 Jurkat cells co-cultured with NCI-N87) [12]: 1.67 nM
binding result [13]: no binding (tested: 500 nM)
EC50 [14]: 9.61 nM
B2: reference CD137 antibody (SEQ ID NOs: 26 and 27) (antibody, human IgG4 S228P, kappa, V domains shown)
VH: QVQLQQWGAGLLKPSETLSLTCAVYGGSFSGYYWSWIRQSPEKGLEWIGEINHGGYVTYNPSLESRVTISVDTSKNQFSLKLSSVTAADTAVYYCARDYGPGNYDWYFDLWGRGTLVTVSS
VL: EIVLTQSPATLSLSPGERATLSCRASQSVSSYLAWYQQKPGQAPRLLIYDASNRATGIPARFSGSGSGTDFTLTISSLEPEDFAVYYCQQRSNWPPALTFGGGTKVEIKR
